Among the data in patent publication US20240368668A1, “SUBSTRATES AND BIOMARKERS OF ADAMTS7” (The Broad Institute, Inc., priority 2021, published 2024) are logFC.mEQ.over.Luc values, retold here.

Square brackets hold non-standard residues; d marks the D form. Ends that are not written are not given here.

The target of one test is T1, mouse ADAMTS7 (Mus musculus, UniProt Q68SA9, E373Q).
T1 construct: Full-length mouse Adamts7 1-1857 (Uniprot Q68SA9, WT or E373Q catalytic mutant); expressed in transfected cells; host or cells: Human Coronary Artery Smooth Muscle Cells (HCA-SMC, Lonza), adenovirus 50 MOI
T1 sequence (Q68SA9 221-1657 E373Q): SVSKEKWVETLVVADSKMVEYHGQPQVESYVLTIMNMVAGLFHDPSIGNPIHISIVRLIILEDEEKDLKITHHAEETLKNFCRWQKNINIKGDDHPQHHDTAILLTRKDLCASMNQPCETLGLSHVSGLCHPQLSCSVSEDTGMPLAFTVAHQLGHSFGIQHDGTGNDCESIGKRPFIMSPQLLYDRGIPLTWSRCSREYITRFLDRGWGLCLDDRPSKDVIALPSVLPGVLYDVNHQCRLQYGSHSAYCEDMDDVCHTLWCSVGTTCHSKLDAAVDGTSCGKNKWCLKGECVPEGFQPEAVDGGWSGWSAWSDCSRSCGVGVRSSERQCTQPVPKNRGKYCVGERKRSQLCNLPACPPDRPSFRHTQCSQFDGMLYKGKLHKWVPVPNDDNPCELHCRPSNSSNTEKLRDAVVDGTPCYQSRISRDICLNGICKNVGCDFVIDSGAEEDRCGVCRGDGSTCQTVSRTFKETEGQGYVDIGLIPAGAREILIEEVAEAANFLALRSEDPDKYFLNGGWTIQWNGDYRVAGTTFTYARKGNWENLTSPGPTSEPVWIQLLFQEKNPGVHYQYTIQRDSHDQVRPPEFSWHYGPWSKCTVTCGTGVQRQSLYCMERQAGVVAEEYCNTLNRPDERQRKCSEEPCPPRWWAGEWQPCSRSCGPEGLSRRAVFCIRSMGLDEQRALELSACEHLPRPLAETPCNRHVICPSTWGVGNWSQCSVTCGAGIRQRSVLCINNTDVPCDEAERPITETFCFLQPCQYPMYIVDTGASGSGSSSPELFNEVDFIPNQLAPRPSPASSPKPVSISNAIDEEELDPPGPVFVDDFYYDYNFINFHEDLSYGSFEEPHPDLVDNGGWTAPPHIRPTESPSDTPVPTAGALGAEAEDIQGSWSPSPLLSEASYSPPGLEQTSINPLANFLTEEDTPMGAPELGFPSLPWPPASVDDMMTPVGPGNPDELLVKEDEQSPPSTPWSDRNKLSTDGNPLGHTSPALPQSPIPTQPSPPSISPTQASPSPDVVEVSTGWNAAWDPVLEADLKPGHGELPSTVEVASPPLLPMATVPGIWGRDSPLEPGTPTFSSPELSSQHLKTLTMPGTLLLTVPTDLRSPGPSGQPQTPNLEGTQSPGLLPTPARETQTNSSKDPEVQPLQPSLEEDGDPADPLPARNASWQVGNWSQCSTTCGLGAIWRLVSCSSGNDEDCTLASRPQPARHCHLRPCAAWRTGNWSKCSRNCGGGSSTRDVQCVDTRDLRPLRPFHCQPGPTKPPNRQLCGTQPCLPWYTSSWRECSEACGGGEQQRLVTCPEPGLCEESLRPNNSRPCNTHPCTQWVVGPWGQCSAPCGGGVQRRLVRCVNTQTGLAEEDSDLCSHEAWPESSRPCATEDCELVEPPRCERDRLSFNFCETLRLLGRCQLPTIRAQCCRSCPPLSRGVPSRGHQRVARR
As to the kind of experiment: TMT10 TAILS N-terminomics, SMC2 experiment (process replicates, trypsin/AspN digest). It counts as cell-based. To be noted: SMC2_TAILS HC; log fold change, mEQ over Luc. An outline of the steps:
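Full-length mouse ADAMTS7 (WT or E373Q mutant, C-terminal 3xFLAG) or luciferase was transduced via adenovirus, 50 MOI, into HCA-SMC (SMC1, SMC2) or HUVEC. SMC1: pooled media, technical triplicates 400 ug; SMC2: process triplicates 300 ug; HUVEC: process triplicates 200 ug, bFGF2 10 ng/ml.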
The substance “ACTG1_105 (LTEAPLNPKANR; listed as Homo sapiens)” registered a logFC.mEQ.over.Luc of −0.31.

In turn, “ACTN4_5 (HAANQSYQYGPSSAGNGAGGGGSMG; listed as Homo sapiens)” came in with a logFC.mEQ.over.Luc of 0.00.

As for “ADAM9_74 (GKEHIIHLER; listed as Homo sapiens)”, the logFC.mEQ.over.Luc is recorded as −0.18.

With “ADAM10_86 (FKVETSNKVL; listed as Homo sapiens)”, the logFC.mEQ.over.Luc is reported as −0.29.

As for “ADNP2_375 (SQPVGPVNK; listed as Homo sapiens)”, the logFC.mEQ.over.Luc came to 4.60.

Turning to “AMER2_654 (LAGTTIRATACH; listed as Homo sapiens)”, the logFC.mEQ.over.Luc is listed as 0.05.

“APLP2_452 (LVETHLAR; listed as Homo sapiens)” yielded a logFC.mEQ.over.Luc of 0.11.

Consider “APOA1_86 (EQLGPVTQEFW; listed as Homo sapiens)”, for which the logFC.mEQ.over.Luc is −0.07.

Take “BMPER_43 (LTGSVAKCENEG; listed as Homo sapiens)”: the logFC.mEQ.over.Luc was −0.06.

Consider “CALU_176 (FTAFLHPEEY; listed as Homo sapiens)”, for which the logFC.mEQ.over.Luc is −0.01.

For the substance “CAP1_300 (FSAPKPQTSPSPKR; listed as Homo sapiens)”, the logFC.mEQ.over.Luc came out at 0.09.

Consider “CCL2_28 (INAPVTCCYNFTNR; listed as Homo sapiens)”, for which the logFC.mEQ.over.Luc is −0.11.

“CEP192_728 (DKSTAGR; listed as Homo sapiens)” returned a logFC.mEQ.over.Luc of −0.62.

In the case of “CTSB_109 (WAFGAVEAIS; listed as Homo sapiens)”, the logFC.mEQ.over.Luc is −0.08.

As to “DBN1_434 (APVEPATA; listed as Homo sapiens)”, the logFC.mEQ.over.Luc was determined as 0.03.

Turning to “DIS3L_75 (FPELKGIIFMQTACQAVQHQR; listed as Homo sapiens)”, the logFC.mEQ.over.Luc is recorded as −0.02.

In the case of “ECM1_38 (FQEVGYAAPPSPPLSR; listed as Homo sapiens)”, the logFC.mEQ.over.Luc is reported as −0.02.

Turning to “ECM1_44 (AAPPSPPLSR; listed as Homo sapiens)”, the logFC.mEQ.over.Luc was −0.28.

“ECM1_108 (QEAVPLQK; listed as Homo sapiens)” gave a logFC.mEQ.over.Luc of −0.22.

In the case of “EEF1G_23 (QYSGAQVR; listed as Homo sapiens)”, the logFC.mEQ.over.Luc is −0.12.

“EIF4B_426 (QTGTSTTSSR; listed as Homo sapiens)”: the logFC.mEQ.over.Luc was found to be 0.49.

Take “EMSY_943 (QTVVQVLAVK; listed as Homo sapiens)”: the logFC.mEQ.over.Luc is recorded as 0.20.

“FBLN2_665 (FSQVASNTIPLPLPQPNTCK; listed as Homo sapiens)” gave a logFC.mEQ.over.Luc of −0.15.

Turning to “FLNA_689 (VNKPAEFTV; listed as Homo sapiens)”, the logFC.mEQ.over.Luc is −1.45.

With “FLNC_2649 (FVGQKNSFTV; listed as Homo sapiens)”, the logFC.mEQ.over.Luc is reported as −0.06.

In turn, “FN1_35 ([code q]MVQPQSPVAVSQSKPGCY; not fully specified (residue 2); listed as Homo sapiens)” showed a logFC.mEQ.over.Luc of −0.09.

Consider “FN1_99 (DKYTGNTYR; listed as Homo sapiens)”, for which the logFC.mEQ.over.Luc is −0.08.

In the case of “FN1_607 (SSSGPVEVFIT; listed as Homo sapiens)”, the logFC.mEQ.over.Luc amounted to 0.45.

“FN1_1693 (LQPTVEYVVSVYAQNPSG; listed as Homo sapiens)” returned a logFC.mEQ.over.Luc of −0.07.

“FN1_1780 (LQGLRPGSEYTVSVVALH; listed as Homo sapiens)” showed a logFC.mEQ.over.Luc of −0.34.

In turn, “FN1_1805 (LIGTQSTAIPAPT; listed as Homo sapiens)” showed a logFC.mEQ.over.Luc of 0.71.

The substance “FN1_2113 (FVTHPGY; listed as Homo sapiens)” showed a logFC.mEQ.over.Luc of −0.19.

“FOXG1_235 (LNKCFVKVPRHY; listed as Homo sapiens)” registered a logFC.mEQ.over.Luc of 0.07.

With “FSTL_1290 (LQKHQETA; listed as Homo sapiens)”, the logFC.mEQ.over.Luc is reported as −0.28.

The substance “HEG1_51 (GLELQLER; listed as Homo sapiens)” came in with a logFC.mEQ.over.Luc of 0.25.

“HEG1_224 (FQTKSGTAS; listed as Homo sapiens)” registered a logFC.mEQ.over.Luc of 0.29.

Substance “KCND1_436 (RLAKSGTTNAFLQYKQNGGLE; listed as Homo sapiens)” registered a logFC.mEQ.over.Luc of −0.14.

Turning to “KRT28_2 (SLQFSNGSR; listed as Homo sapiens)”, the logFC.mEQ.over.Luc is recorded as −0.34.

In turn, “LASP1_182 (SYGGYKEPAAPVSIQR; listed as Homo sapiens)” gave a logFC.mEQ.over.Luc of −0.14.

Regarding “LOXL1_157 (SVSASAFASTYR; listed as Homo sapiens)”, the logFC.mEQ.over.Luc is −0.19.

Turning to “LOX_60 (LGSQYQPQR; listed as Homo sapiens)”, the logFC.mEQ.over.Luc is on record as −0.34.

The substance “LOX_125 (FQAGYSTSR; listed as Homo sapiens)” gave a logFC.mEQ.over.Luc of 0.11.

Staying with this test, now noted: log fold change, ADAMTS7 EQ over luciferase.
The substance “QSOX1_558 (VAAAPELAMGALELESR; listed as Homo sapiens)” returned a logFC.mEQ.over.Luc of −0.19.

For the substance “SDC4_106 (LEENEVIPKR; listed as Homo sapiens)”, the logFC.mEQ.over.Luc is on record as −0.35.

In the case of “SERPINH1_27 (AAAPGTAEKLSPKAATLAER; listed as Homo sapiens)”, the logFC.mEQ.over.Luc is on record as −0.69.

For the substance “SMOC1_35 (LISDRDPQCNLHCSR; listed as Homo sapiens)”, the logFC.mEQ.over.Luc is listed as 0.14.

Consider “SPOCK1_126 (HWVGPSNLVK; listed as Homo sapiens)”, for which the logFC.mEQ.over.Luc amounted to 0.36.

For “SRGN_50 (LEEKGPMFELLPGESNKIPR; listed as Homo sapiens)”, the logFC.mEQ.over.Luc is listed as −0.07.

On to “SRGN_51 (EEKGPMFELLPGESNKIPR; listed as Homo sapiens)”, for which the logFC.mEQ.over.Luc is listed as −0.13.

“SRGN_60 (LPGESNKIPR; listed as Homo sapiens)” returned a logFC.mEQ.over.Luc of 0.32.

“SRGN_62 (GESNKIPR; listed as Homo sapiens)” returned a logFC.mEQ.over.Luc of −0.45.

Substance “STC1_37 (QNSAEVVR; listed as Homo sapiens)” displayed a logFC.mEQ.over.Luc of −0.22.

“STC2_239 (HGEAGHHLPEPSSR; listed as Homo sapiens)” displayed a logFC.mEQ.over.Luc of −0.11.

The substance “STC2_244 (HHLPEPSSR; listed as Homo sapiens)” yielded a logFC.mEQ.over.Luc of −0.26.

Take “TGFBI_24 (GPAKSPYQLVLQHSR; listed as Homo sapiens)”: the logFC.mEQ.over.Luc amounted to 0.05.

For the substance “TGFBI_43 ([code q]HGPNVCAVQKVIGTNR; not fully specified; listed as Homo sapiens)”, the logFC.mEQ.over.Luc is 0.10.

“TGFBI_50 (AVQKVIGTNR; listed as Homo sapiens)” returned a logFC.mEQ.over.Luc of 0.33.

The substance “TGFBI_208 (GIVTVNCAR; listed as Homo sapiens)” showed a logFC.mEQ.over.Luc of 0.30.

Substance “TGFBI_276 (TLLAPT[code n]EAFEKIPSETLNR; not fully specified; listed as Homo sapiens)” displayed a logFC.mEQ.over.Luc of 0.09.

“TGFBI_497 (VLTPPMGTVMDVLKGDNR; not fully specified (residue 6); listed as Homo sapiens)” returned a logFC.mEQ.over.Luc of 0.14.
